Assay results from patent US20230052646A1 (JJP BIOLOGICS SP Z O O, published 2023).
Residue numbers refer to the chain shown, from its start. Names and notes keep the numbering of the source.

T1: membrane-bound full-length human HVEM on stable HVEM-transfected HEK293F cells (clone no. 128) (human, UniProt Q92956 39-283)
T1 construct: The same cDNA was also expressed on Sf9 insect cells; also called TNFRSF14; CD270
T1 sequence: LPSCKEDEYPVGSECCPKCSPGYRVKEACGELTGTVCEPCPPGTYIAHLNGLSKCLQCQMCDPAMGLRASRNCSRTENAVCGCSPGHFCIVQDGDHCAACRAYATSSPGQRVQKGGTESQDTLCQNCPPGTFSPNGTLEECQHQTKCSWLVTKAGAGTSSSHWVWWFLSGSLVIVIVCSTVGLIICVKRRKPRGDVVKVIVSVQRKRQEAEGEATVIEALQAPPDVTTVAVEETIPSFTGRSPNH

B1: chimeric mouse/human IgG4/kappa anti-human HVEM antibody no. 49G4 (antibody, V domains shown)
VH: EVQLQQSGAELVKPGASVKLSCRASGFNIKDTYMHWVKQRPEQGLEWIGRIDPARGNTKYDPKFQGKATITADTSSNTAYLQLSSLTSEDTAVYYCASAMDYWGQGTSVTVSS
VL: DVLMTQTPLSLPVSLGDQASISCRSSQSIVHSNGNTYLEWFLQKPGQSPKLLIYKVSNRFSGVPDRFSGSGSGTDFTLKISRVEAEDLGVYYCFQGSHVPLTFGAGTKLELKR
notes: 48/49 within the entry; Stabilized human IgG4 (S239P) already in the entry; also called chimeric 49G4
B2: chimeric mouse/human IgG4/kappa anti-human HVEM antibody no. 36H12 (antibody, V domains shown)
VH: EVQLQQSGAGLVKPGASVKLSCTASGFNIKDTYMHWVRQRPEQGLEWIGRIDPATANTKYDPKFQGKATLTTDTSSNTAYLQLSSLTSEDTAVYYCVTYGYDVSWFAYWGLGALVTVSA
VL: B1 VL with N35I, F41Y
notes: 16/17 within the entry; Stabilized human IgG4 (S239P) already in the entry; also called chimeric 36H12
B3: chimeric mouse/human IgG4/kappa anti-human HVEM antibody no. 45H6 (antibody, V domains shown)
VH: DVQLVESGGGLVQPGGSRKLSCAASGFTFSSFGMHWVRQAPEKGLEWVAYISSGNSNIYYVDTVKGRFTISRDNPKNTLFLQMTSLRSEDTAMYYCARKRAYGDYSGFSMDYWGQGTSVTVSS
VL: DIVMTQSQKFMSTSVGDRVSVTCKASQNVDTNVAWYQQKPGQSPKALIYSASYRYSGVPDRFTGSGSGTDFTLTISNVQSEDLAEYFCQQYNKFPLTFGGGTKLEIKR
notes: 24/25 within the entry; Stabilized human IgG4 (S239P) already in the entry; also called chimeric 45H6

Key:
[1] = molecular target: membrane-bound human HVEM on Promega bioassay cells (NFκB-RE-luc human HVEM HEK293 reporter cells; CHO-K1 Activator cells) (human) (UniProt Q92956); experiment: cell-based or functional assay
[2] = molecular target: membrane-bound human HVEM on Promega bioassay cells (NFκB-RE-luc human HVEM HEK293 reporter cells; CHO-K1 Activator cells) (human) (UniProt Q92956); experiment: flow cytometry, 1:20, NFκB-RE-luc HVEM reporter cells
[3] = molecular target: membrane-bound full-length human HVEM on stable HVEM-transfected HEK293F cells (clone no. 128) (human) (UniProt Q92956); experiment: flow cytometry, 1:20, HEK293F clone no. 128
[4] = molecular target: T1, membrane-bound full-length human HVEM …; experiment: FACS titration on HVEM-HEK293F, half-maximum binding
Method: In order to determine the relative binding affinity of purified BTLA/HVEM blocking chimeric mouse/human anti-human HVEM antibodies no. 36H12, 45H6, 48H6, 11H7, and 49G4 for human HVEM, FACS analysis was used.
To this end, stable human full-length HVEM-transfected HEK293F cells (clone no. 128; see Example 1(a) above) were put at 10×10⁶ cells/mL in ice-chilled PBS containing 0.1% BSA (Sigma)/0.05% NaN₃ (PBS/BSA/NaN₃) supplemented with 50 μg/mL human IgGs (blocking possible Fcγ receptors; Sigma) for 10 minutes at 4° C. Then, 10 μL/tube (i.e., 0.1×10⁶ cells) of these cells were incubated with or without 100 μL titrated (in PBS/BSA/NaN₃) purified BTLA/HVEM blocking chimeric mouse/human anti-human HVEM antibody/tube for 30 minutes at 4° C. After extensive washing in PBS/BSA/NaN₃, cells were subsequently incubated with 1:200 diluted PE-conjugated goat anti-human IgG Fcγ-specific antibodies (Jackson ImmunoResearch) for 30 minutes at 4° C. After extensive washing in PBS/BSA/NaN₃, cells were fixed in 4% formaldehyde in PBS/BSA/NaN₃ for 30 minutes at 4° C. Binding (geo-mean fluorescence intensity) of chimeric mouse/human anti-human HVEM antibodies no. 36H12, 45H6, 48H6, 11H7, and 49G4 on membrane human HVEM was measured using a flow cytometer (FACSCalibur; BD Biosciences). For comparison, purified BTLA/HVEM blocking mouse anti-human HVEM antibody counterparts no. 36H12, 45H6, 48H6, 11H7, and 49G4 were run in parallel, and their binding was monitored as described in Example 2 (a).

[5] = molecular target: T1, membrane-bound full-length human HVEM …; experiment: FACS, biotinylated TNFβ pre-bound, then Ab 20 µg/mL
Method: (§1) Generation of human ‘full-length’ HVEM-transfected HEK293F cells (clone no. 128) is described in Example 1a. Displacement of pre-bound soluble human BTLA, soluble human CD160, soluble human LIGHT, and soluble human TNFβ from surface human HVEM-transfected cells was analysed by FACS analysis. To this end, stable human full-length HVEM-transfected HEK293F cells were put at 10×10⁶ cells/mL in ice-chilled phosphate-buffered saline containing 0.1% BSA (Sigma)/0.05% NaN₃ (PBS/BSA/NaN₃) supplemented with 50 μg/mL human IgGs (blocking possible Fcγ receptors; Sigma) for 10 minutes at 4° C. Then, 10 μL/tube (i.e., 0.1×10⁶ cells) of these cells were incubated without or with 50 μL soluble biotinylated human BTLA-human Fcγ fusion protein (Sino Biological Inc) at 2 μg/mL/tube, with soluble his-tagged human CD160 (Sino Biological Inc) at 20 μg/mL/tube, with soluble his-tagged human LIGHT (Sino Biological Inc) at 2 μg/mL/tube, or with soluble biotinylated human TNFβ (Sino Biological Inc) at 0.2 μg/mL/tube in PBS/BSA/NaN₃ for 30 minutes at 4° C. After this (i.e., without washing), cells were subsequently incubated with 50 μL purified chimeric mouse/human anti-HVEM antibody at 20 μg/mL/tube or a human IgG4/κ (Sigma) negative isotype control at 20 μg/mL/tube for 30 minutes at 4° C. After extensive washing in PBS/BSA/NaN₃, cells were incubated with 1:200 diluted PE-conjugated streptavidin (detection BTLA and TNFβ; Jackson ImmunoResearch) or with biotinylated mouse anti-his antibody (detection CD160 and LIGHT; R&D Systems) at 10 μg/mL for 30 minutes at 4° C. After extensive washing in PBS/BSA/NaN₃, cells were incubated with 1:200 diluted PE-conjugated streptavidin (detection BTLA and TNFβ; Jackson ImmunoResearch) or with biotinylated mouse anti-his antibody (detection CD160 and LIGHT; R&D Systems) at 10 μg/mL for 30 minutes at 4° C. After extensive washing in PBS/BSA/NaN₃, cells were incubated with 1:200 diluted PE-conjugated streptavidin (detection CD160 and LIGHT; Jackson ImmunoResearch) for 30 minutes at 4° C. After extensive washing in PBS/BSA/NaN₃, cells were fixed in 4% formaldehyde in PBS/BSA/NaN₃ for 30 minutes at 4° C. Residual binding of ligands BTLA, CD160, LIGHT and TNFβ on membrane human HVEM was measured using a flow cytometer (model FACSCalibur; BD Biosciences).

[6] = molecular target: T1, membrane-bound full-length human HVEM …; experiment: FACS, biotinylated BTLA-Fc pre-bound, then Ab 20 µg/mL
Method: as §1

[7] = molecular target: T1, membrane-bound full-length human HVEM …; experiment: FACS, Ab 10 µg/mL then biotinylated TNFβ on HVEM-HEK293F
Method: (§2) Generation of human ‘full-length’ HVEM-transfected HEK293F cells (clone no. 128) is described in Example 1a. Binding of soluble human BTLA, of soluble human CD160, of soluble human LIGHT, and of soluble human TNFβ on surface human HVEM-transfected cells was analysed by FACS analysis. To this end, stable human full-length HVEM-transfected HEK293F cells were put at 10×10⁶ cells/mL in ice-chilled phosphate-buffered saline containing 0.1% BSA (Sigma)/0.05% NaN₃ (PBS/BSA/NaN₃) supplemented with 50 μg/mL human IgGs (blocking possible Fcγ receptors; Sigma) for 10 minutes at 4° C. Then, 10 μL/tube (i.e., 0.1×10⁶ cells) of these cells were incubated with or without 100 μL purified chimeric mouse/human anti-HVEM antibody at 10 μg/mL/tube or a human IgG4/κ (Sigma) negative isotype control at 10 μg/mL/tube for 30 minutes at 4° C. After this (i.e., without washing), cells were subsequently incubated with 1 μg/mL soluble biotinylated human BTLA (Sino Biological Inc), with 10 μg/mL soluble his-tagged human CD160 (Sino Biological Inc), with 1 μg/mL soluble his-tagged human LIGHT (Sino Biological Inc), or with 0.1 μg/mL soluble biotinylated human TNFβ (Sino Biological Inc) in PBS/BSA/NaN₃ for 30 minutes at 4° C. After extensive washing in PBS/BSA/NaN₃, cells were incubated with 1:200 diluted PE-conjugated streptavidin (detection BTLA and TNFβ; Jackson ImmunoResearch) or with biotinylated mouse anti-his antibody (detection CD160 and LIGHT; R&D Systems) at 10 μg/mL for 30 minutes at 4° C. After extensive washing in PBS/BSA/NaN₃, cells were incubated with 1:200 diluted PE-conjugated streptavidin (detection CD160 and LIGHT; Jackson ImmunoResearch) for 30 minutes at 4° C. After extensive washing in PBS/BSA/NaN₃, cells were fixed in 4% formaldehyde in PBS/BSA/NaN₃ for 30 minutes at 4° C. Binding of ligands BTLA, CD160, LIGHT and TNFβ on membrane human HVEM was measured using a flow cytometer (model FACSCalibur; BD Biosciences). For comparison, purified BTLA/HVEM blocking mouse anti-human HVEM antibody counterparts no. 36H12, 45H6, 48H6, 11H7, and 49G4 at 10 μg/mL/tube and a mouse IgG1 (BD Biosciences) negative isotype control at 10 μg/mL/tube were run in parallel.

[8] = molecular target: T1, membrane-bound full-length human HVEM …; experiment: FACS, his-LIGHT pre-bound, then Ab 20 µg/mL
Method: as §1, with “After extensive washing in PBS/BSA/NaN₃, cells were incubated with 1:200 diluted PE-conjugated streptavidin (detection BTLA and TNFβ; Jackson ImmunoResearch) or with biotinylated mouse anti-his antibody (detection CD160 and LIGHT; R&D Systems) at 10 μg/mL for 30 minutes at 4° C. After extensive washing in PBS/BSA/NaN₃, cells were incubated with 1:200 diluted PE-conjugated streptavidin (detection CD160 and LIGHT; Jackson ImmunoResearch) for 30 minutes at 4° C. After extensive washing in PBS/BSA/NaN₃, cells were fixed in 4% formaldehyde in PBS/BSA/NaN₃ for 30 minutes at 4° C.” left out

[9] = molecular target: T1, membrane-bound full-length human HVEM …; experiment: FACS, Ab 10 µg/mL then biotinylated BTLA on HVEM-HEK293F
Method: as §2

Row | Molecule | EC80 of LIGHT-induced NFκB-RE-luc activation [1] [µg/mL] | signal to noise ratio [2] | signal to noise ratio [3] | EC50 [4] [µg/mL] | % displacement of pre-bound ligand [5] [%] | % displacement of pre-bound ligand [6] [%] | % blocking of ligand binding [7] [%] | % displacement of pre-bound ligand [8] [%] | % blocking of ligand binding [9] [%]
1 | soluble his-tagged human LIGHT (R&D Systems) (ligand) | 0.3 |  |  |  |  |  |  |  | 
2 | phycoerythrin (PE)-conjugated mouse anti-human HVEM antibody (clone eBioHVEM-122; eBioscience) |  | < 5 | 1000 |  |  |  |  |  | 
3 | B1 |  |  |  | 0.312 | > 55 | > 95 | > 80 | < 20 | > 95
4 | B2 |  |  |  | 0.433 | > 90 | > 95 | > 94 | < 20 | > 95
5 | B3 |  |  |  | 0.306 | > 90 | > 95 | > 94 | < 20 | > 95
